The assay has as its target T1, ofd1_human OFD1 (UniProt O75665).
T1 sequence: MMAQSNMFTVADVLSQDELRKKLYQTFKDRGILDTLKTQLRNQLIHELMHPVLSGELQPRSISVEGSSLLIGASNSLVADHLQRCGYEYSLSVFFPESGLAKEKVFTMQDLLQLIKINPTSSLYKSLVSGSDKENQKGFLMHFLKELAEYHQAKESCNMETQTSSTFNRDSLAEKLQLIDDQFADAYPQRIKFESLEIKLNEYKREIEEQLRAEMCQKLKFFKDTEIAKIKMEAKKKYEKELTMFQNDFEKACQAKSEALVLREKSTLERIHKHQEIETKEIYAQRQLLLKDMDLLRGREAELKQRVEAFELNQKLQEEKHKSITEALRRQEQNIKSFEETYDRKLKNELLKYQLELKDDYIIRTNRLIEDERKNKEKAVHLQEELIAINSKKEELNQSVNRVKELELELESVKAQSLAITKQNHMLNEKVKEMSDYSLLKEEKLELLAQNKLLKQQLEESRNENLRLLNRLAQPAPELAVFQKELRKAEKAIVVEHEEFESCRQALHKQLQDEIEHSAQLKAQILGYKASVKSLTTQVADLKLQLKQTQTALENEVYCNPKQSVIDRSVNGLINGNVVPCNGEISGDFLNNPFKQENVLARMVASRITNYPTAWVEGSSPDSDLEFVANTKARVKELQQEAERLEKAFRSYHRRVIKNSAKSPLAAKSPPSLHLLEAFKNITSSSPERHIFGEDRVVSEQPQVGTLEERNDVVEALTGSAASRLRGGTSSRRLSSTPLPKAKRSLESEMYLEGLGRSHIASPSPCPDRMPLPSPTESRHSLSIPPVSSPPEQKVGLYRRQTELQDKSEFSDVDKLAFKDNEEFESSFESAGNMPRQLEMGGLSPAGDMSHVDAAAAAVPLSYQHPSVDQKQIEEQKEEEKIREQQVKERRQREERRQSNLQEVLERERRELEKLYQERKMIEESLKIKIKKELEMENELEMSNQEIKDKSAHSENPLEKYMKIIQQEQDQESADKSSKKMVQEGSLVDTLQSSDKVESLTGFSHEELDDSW

“Microtubule-associated protein 1 light chain 3 beta (Homo sapiens) (from UniProt Q9GZQ8) F52A;L53A”: the “effect of a mutation on the interaction” value is reported as “disrupting interaction”.
